Consider five molecules from patent publication EP2319871A1 (Sanofi-Aventis, dated 2011).

“And” between values parts separate entries of the source, which are not always exact repeats. Equal values may be shown once. A value given as a limit tells only on which side of the number the result lay.

Assay [1] addresses T1, RAGE-Fc (human, UniProt Q15109 23-342, limits assumed).
T1 construct: Format stated for the S100A12 and S100A6 ELISAs; also called hRAGE; not shown: Fc part, detected with anti-hIgG Fc-specific-POD
Description: competition ELISA, RAGE-S100A6 interaction (competitor S100A6). Background: In an ELISA, binding on a coated surface is turned into a signal by an enzyme label.

The target in assay [2] is T2, sRAGE (V-C1-C2) lot LP08062 (human, UniProt Q15109 23-342).
T2 construct: extracellular domain; also called Human RAGE; LP08062 (Rage)
The experiment in a line: SPR (Biacore), mAb captured on anti-mouse Fc, sRAGE 15 nM, 1:1 Langmuir. (In general: In SPR one partner is held on a chip, and binding of the other changes the refractive index at the surface.)

In assay [3] the target is T1, RAGE-Fc. Description: competition ELISA, RAGE-Fc 10 µg/mL + diluted mAb on coated S100A6 (competitor S100A6).
In another assay the target is RAGE-Fc (human) (UniProt Q15109). The experiment in a line: competition ELISA, mAb 10 µg/mL + RAGE-Fc 10 µg/mL on coated S100A6 (competitor S100A6).
Chain of RAGE-Fc (human) (Q15109 23-342 limits assumed): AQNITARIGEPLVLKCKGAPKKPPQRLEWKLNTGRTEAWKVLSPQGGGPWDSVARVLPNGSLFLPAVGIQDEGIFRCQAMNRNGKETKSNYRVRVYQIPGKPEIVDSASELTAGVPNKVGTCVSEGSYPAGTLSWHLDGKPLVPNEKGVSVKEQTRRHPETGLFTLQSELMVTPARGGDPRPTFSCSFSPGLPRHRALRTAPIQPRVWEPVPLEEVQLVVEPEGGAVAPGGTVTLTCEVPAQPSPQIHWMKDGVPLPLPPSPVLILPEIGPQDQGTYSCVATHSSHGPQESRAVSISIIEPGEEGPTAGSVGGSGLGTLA

T1 sequence (Q15109 23-342 limits assumed): as above
T2 sequence (Q15109 23-342): as the sequence (Q15109 23-342 limits assumed) above

B1: 56 RAGE-1 (antibody, V domains shown)
VH: QVQLQQSGPELVKPGASVRISCKASGYTFTSYFIHWVKQRPGQGLEWIGWIYPGNVNTKYNEKFKDKATLTADKSSSTAYMQLSNLTSEDSAVYFCVRGQLGDYWGQGITLTVSS
VL: DIVMTQSQKFMSTSVGDRVSVTCKASQNVGINVAWYQQKPGQSPKALIYSASYRYSGVPDRFTGSGSGTDFTLIISNVQSEDLAEYFCQQYNNYPRTFGGGTKLEIK
notes: Hybridoma monoclonal antibody, captured on anti-mouse Fc in Biacore; also called LP08103; Protein 56 RAGE-1
In general, IC50 refers to the concentration at which inhibition is half-maximal. The term Kd denotes the free concentration of one partner at which half of the binding sites on the other are occupied at equilibrium, for simple one-to-one binding. Read a high Kd as a looser complex. For orientation: koff means the rate constant with which the complex falls apart. A lower koff goes with slow dissociation. Usually kon stands for a measure of how fast the partners come together. Low values mean slow association, high ones fast association. As to B1, the IC50 with RAGE-Fc [1] stood at 7.7 nM. In assay [2], this molecule had a Kd of 1.87 nM, a koff of 0.00539 s⁻¹ and a kon of 2.89e+06 M⁻¹ s⁻¹. For the same molecule, the IC50 with RAGE-Fc [3] was 1.16 µg/mL and 7.73 nM.

B2: 152 RAGE-1 (antibody, V domains shown)
VH: DVQLQESGPDLVKPSQSLSLTCTVTGYSITSGYSWHWIRQFPGNKLEWMGYIHYSGSTNYNPSLKSRISITRDTSKNQFFLQLNSVTTEDTATYYCARGGDFAYWGQGTLVTVSA
VL: DIVLTQSPASLAVSLGQRATISCRASKSVGTSDSSYMHWYQQKPGQPPKLLIYLASNLESGVPARFSGSGSGTDFTLNIHPVEEEDAATYYCQHSRELYTFGGGTKLEIK
notes: Hybridoma monoclonal antibody, captured on anti-mouse Fc in Biacore; also called LP08104; Protein 152 RAGE-1
For B2, in assay [2], binding was put at a Kd of 0.687 nM, the koff was determined as 0.00265 s⁻¹ and the kon was determined as 3.86e+06 M⁻¹ s⁻¹. The inhibitory effect in the assay with RAGE-Fc (human) was > 20%.

B3: 130 RAGE-1 (antibody, V domains shown)
VH: EVQLVESGGGLVKPGGSLKLSCAASGFTFSSYVMSWVRQSPEKRLEWVAEISSGGSYTYYPDTVTGRFTISRDNDKNTLYLEMSSLRSEDTAMYYCARPPYGKDAMDYWGQGTSVTVSS
VL: QIVLTQSPAIMSASPGEKVTMTCSASSSVSYMHWYQQKSGTSPKRWISDTSKLASGVPARFSGSGSGTSYSLTISSMEAEDAATYYCQQWSSNPPTFGGGTKLEIK
notes: Hybridoma monoclonal antibody, captured on anti-mouse Fc in Biacore; also called Protein 130 RAGE-1
In assay [2], B3 displayed a Kd of 0.236 nM, a koff of 0.00136 s⁻¹ and a kon of 5.76e+06 M⁻¹ s⁻¹.

B4: 95 RAGE-1 (antibody, V domains shown)
VH: QVQLQQPGAELVKPGASVKLSCKASGYTFTSYWMHWVKQRPGQGLEWIGESNPSNGRTNYNEKFKNKATLTVDKSSSTAYMQLSSLTSEDSAVYYCARAPYYGFDYWGQGTTLTVSS
VL: QAVVTQESALTTSPGETVTLTCRSSTGAVTTSNYANWVQEKPDHLFTGLTGGTNNRAPGVPARFSGSLIGDKAALTITGAQTEDEAIYFCALWYSNHWVFGGGTKLTVL
notes: Hybridoma monoclonal antibody, captured on anti-mouse Fc in Biacore; also called Protein 95 RAGE-1
In assay [2], B4 registered a Kd of 0.462 nM, a koff of 0.00123 s⁻¹ and a kon of 2.66e+06 M⁻¹ s⁻¹.

B5: 140 RAGE-1 (antibody, V domains shown)
VH: QVQLQQPGAELVKPGASVRLSCKASGYTFTSYWMHWVKQRPGQGLEWIGEINPSNGRTNYNEKFKSKATLTVDKSSSTAYMQLSSLTSEDSAVYYCARDGLGYRPIAMDYWGQGTSVTVSS
VL: QIVLTQSPAIMSASPGEKVTISCSASSSVSYMYWYQQKPGSSPKPWIYRTSNLASGVPARFSGSGSGTSYSLTISSMEAEDAATYYCQQYHSYPPMYTFGGGTKLEIK
notes: Hybridoma monoclonal antibody, captured on anti-mouse Fc in Biacore; also called Protein 140 RAGE-1
In assay [2], B5 displayed a Kd of 0.303 nM, a dissociation rate constant (koff) of 0.00157 s⁻¹ and a kon of 5.19e+06 M⁻¹ s⁻¹.
